Laboratory results published in patent publication JP2006306895A (dated 2006).
Where a chain is given by its changes, count along the chain named.

B1: ヒト型化#23-57-137-1抗体 L鎖バージョン"j" (antibody, V domains shown)
VH: QVQLVESGGGVVQPGRSLRLSCAASGFTFSSYGMSWVRQAPGKGLEWVATISSGGSYTYYPDSVKGRFTISRDNSKNTLYLQMNSLRAEDTAVYYCARQTTMTYFAYWGQGTLVTVSS
VL: QLVLTQSPSASASLGASVKLTCTLSSQHSTYTIEWYQQQPEKGPKYLMDLKQDGSHSTGDGIPDRFSGSSSGAERYLTISSLQSEDEADYYCGVGDTIKEQFVYVFGGGTKLTVLG
notes: Humanized H chain version a with human Cγ1; human lambda L chain C region; also called hMBC1HcDNA/pCOS1 + hMBC1Ljλ/pCOS1; version j
B2: ヒト型化#23-57-137-1抗体 L鎖バージョン"o" (antibody, V domains shown)
VH: B1 VH
VL: B1 VL with K45R, L47V
notes: Humanized H chain version a with human Cγ1; human lambda L chain C region; also called hMBC1HcDNA/pCOS1 + hMBC1Loλ/pCOS1; version o
B3: ヒト型化H鎖バージョン"a"とキメラL鎖を組み合わせた抗体 (antibody, V domains shown)
VH: B1 VH
VL: QLVLTQSSSASFSLGASAKLTCTLSSQHSTYTIEWYQQQPLKPPKYVMDLKQDGSHSTGDGIPDRFSGSSSGADRYLSISNIQPEDEAMYICGVGDTIKEQFVYVFGGGTKVTVLG
notes: Human Cγ1 H chain C region; also called humanized H chain version a + chimeric L chain
B4: ヒト型化#23-57-137-1抗体 L鎖バージョン"l" (antibody, V domains shown)
VH: B1 VH
VL: B1 VL with L47V
notes: Humanized H chain version a with human Cγ1; human lambda L chain C region; also called hMBC1HcDNA/pCOS1 + hMBC1Llλ/pCOS1; version l
B5: ヒト型化#23-57-137-1抗体 L鎖バージョン"t" (antibody, V domains shown)
VH: B1 VH
VL: B1 VL with K45R, L47V, Y91I
notes: Humanized H chain version a with human Cγ1; human lambda L chain C region; also called hMBC1HcDNA/pCOS1 + hMBC1Ltλ/pCOS1; version t
B6: ヒト型化#23-57-137-1抗体 L鎖バージョン"m" (antibody, V domains shown)
VH: B1 VH
VL: B1 VL with K45R
notes: Humanized H chain version a with human Cγ1; human lambda L chain C region; also called hMBC1HcDNA/pCOS1 + hMBC1Lmλ/pCOS1; version m
B7: ヒト型化#23-57-137-1抗体 L鎖バージョン"q" (antibody, V domains shown)
VH: B1 VH
VL: B1 VL with Y91I
notes: Humanized H chain version a with human Cγ1; human lambda L chain C region; also called ヒト型化抗体バージョンq; hMBC1HcDNA/pCOS1 + hMBC1Lqλ/pCOS1

Molecular target: T1, ヒトPTHrP(1-34) (human)
T1 construct: Synthetic peptide, coated on ELISA plates (Peptide Institute) or mixed with antibody in the cAMP neutralisation assay; also called human parathyroid hormone related protein (1-34)
Test: ELISA, plate-coated human PTHrP(1-34)

Binder	binding result
B1	binds
B2	binds
B3	binds
B4	binds
B5	binds
B6	binds
B7	binds
